2 substances from PMC10495444 can be followed below.

Experiment [1] deals with mouse Xkr4 C-terminal cleaved form (mXkr4ΔC) fused with monomeric EGFP (mouse). Put plainly: SEC + native gel or EMSA; whole lysate of transfected HEK293T cells in LMNG/GDN 1:1 loaded on Superdex Increase 200 10/300 GL (10 mM HEPES-NaOH pH 7.5, 150 mM NaCl, 0.01% LMNG/GDN, 10% glycerol, 1 mM CaCl2 or 0.5 mM EGTA); dimer fraction collected by EGFP fluorescence; then BN-PAGE with anti-V5 blot after 1 h at 4, 16, 25 or 37 °C.

Experiment [2] has as its target mXkr4ΔC Q332E (aXkr4), constitutively active mutant, fused with monomeric EGFP (mouse). Described as above.

A word on the stoichiometry N: it is the number of molecules, sites or subunits per partner or assembly. For “mouse Xkr4 C-terminal cleaved form (mXkr4ΔC) fused with monomeric EGFP (domain or fragment)”, the stoichiometry N in experiment [1] amounted to 2.
With “mXkr4ΔC Q332E (aXkr4), constitutively active mutant, fused with monomeric EGFP (domain or fragment)”, the stoichiometry N in experiment [2] was determined as 2.
